Among the data in PMC3359990 are percent of TbDCL1 in the precipitate values, retold here.

For this assay, the target named is TbRIF5-BB2-HA (T. brucei). Description: co-IP; cytoplasmic extracts of cells expressing TbDCL1-BB2-FLAG and TbRIF5-BB2-HA; immunoprecipitation with anti-FLAG or anti-HA antibody; Western blot for the common BB2 epitope.

Substance TbDCL1-BB2-FLAG (enzyme) showed a percent of TbDCL1 in the precipitate of 50%.
